The data set concerns the target Cas9 (Streptococcus pyogenes, UniProt Q99ZW2 SEQ:1-1368). Kind of data set: DSF, no thermal shift with alien gRNA; 10 mM Hepes pH 7.5, 150 mM NaCl; 1 uM gRNA. Particulars: gRNA scaffold; printed as encoding DNA. Here is the method: DSF was also used to examine Cas9 molecule/gRNA molecule complexes. S. pyogenes Cas9 alone, S. pyogenes Cas9 with 1 μM S. pyogenes gRNA, and S. pyogenes Cas9 with 1 μM S. aureus gRNA were tested in H150 (10 mM Hepes pH 7.5, 150 mM NaCl). The DNA sequences encoding the gRNA molecules used in these experiments were: […]
(In general: Differential scanning fluorimetry follows unfolding on heating by fluorescence.)

Cas9, sequence (Q99ZW2 whole entry): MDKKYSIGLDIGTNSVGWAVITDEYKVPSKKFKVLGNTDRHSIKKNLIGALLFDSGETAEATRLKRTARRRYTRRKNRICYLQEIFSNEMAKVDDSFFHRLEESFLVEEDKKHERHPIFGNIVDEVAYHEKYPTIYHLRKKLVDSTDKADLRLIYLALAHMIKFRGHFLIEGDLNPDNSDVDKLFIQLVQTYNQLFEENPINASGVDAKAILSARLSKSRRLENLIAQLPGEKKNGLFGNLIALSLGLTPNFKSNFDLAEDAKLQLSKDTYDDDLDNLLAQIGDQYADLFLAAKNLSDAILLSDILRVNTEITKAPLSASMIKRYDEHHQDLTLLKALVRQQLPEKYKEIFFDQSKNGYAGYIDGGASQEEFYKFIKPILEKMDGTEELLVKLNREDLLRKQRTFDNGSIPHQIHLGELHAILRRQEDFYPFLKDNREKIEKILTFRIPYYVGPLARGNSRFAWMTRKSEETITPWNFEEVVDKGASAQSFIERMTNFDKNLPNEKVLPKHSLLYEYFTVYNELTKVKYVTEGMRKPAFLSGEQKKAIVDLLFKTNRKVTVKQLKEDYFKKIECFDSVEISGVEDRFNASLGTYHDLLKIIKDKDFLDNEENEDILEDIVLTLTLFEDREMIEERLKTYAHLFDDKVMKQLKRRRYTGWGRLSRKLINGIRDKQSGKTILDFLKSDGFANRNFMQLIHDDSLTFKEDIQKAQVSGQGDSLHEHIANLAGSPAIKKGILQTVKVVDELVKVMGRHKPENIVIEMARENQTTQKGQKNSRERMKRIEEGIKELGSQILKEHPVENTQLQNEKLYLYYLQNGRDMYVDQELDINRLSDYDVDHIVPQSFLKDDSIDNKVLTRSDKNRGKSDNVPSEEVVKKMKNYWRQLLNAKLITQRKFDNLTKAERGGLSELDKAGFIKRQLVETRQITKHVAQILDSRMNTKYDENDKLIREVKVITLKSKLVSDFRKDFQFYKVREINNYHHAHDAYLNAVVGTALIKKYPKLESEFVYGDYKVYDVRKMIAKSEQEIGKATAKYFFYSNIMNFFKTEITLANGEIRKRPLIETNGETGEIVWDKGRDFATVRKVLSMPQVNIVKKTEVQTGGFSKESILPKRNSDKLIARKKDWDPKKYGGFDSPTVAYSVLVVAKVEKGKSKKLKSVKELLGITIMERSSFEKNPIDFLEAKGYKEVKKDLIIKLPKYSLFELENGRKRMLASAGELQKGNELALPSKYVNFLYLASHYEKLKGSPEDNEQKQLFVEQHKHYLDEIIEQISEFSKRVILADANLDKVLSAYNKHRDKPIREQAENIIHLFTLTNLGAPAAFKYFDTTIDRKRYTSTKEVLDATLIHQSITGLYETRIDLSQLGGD

B1: S. aureus gRNA scaffold (ssRNA)
RNA: GUUUUAGUACUCUGGAAACAGAAUCUACUAAAACAAGGCAAAAUGCCGUGUUUAUCUCGUCAACUUGUUGGCGAGAUUUU
On to B1, for which the binding result is listed as “no binding”.

For the origin of these results see US20180135109, “EVALUATION OF CAS9 MOLECULE/GUIDE RNA MOLECULE COMPLEXES” (EDITAS MEDICINE, INC., published 2018).
